Measured values from patent US9605283B2, “Microorganism modified for the production of 1,3-propanediol” (INSTITUT NATIONAL DES SCIENCES APPLIQUÉES, priority 2012, dated 2017).

B1: Ec-YqhD: alcohol dehydrogenase yqhD from Escherichia coli, used as PDO dehydrogenase (protein, UniProt Q46856 1-387, looked up)
NADPH-dependent aldehyde …: MNNFNLHTPTRILFGKGAIAGLREQIPHDARVLITYGGGSVKKTGVLDQVLDALKGMDVLEFGGIEPNPAYETLMNAVKLVREQKVTFLLAVGGGSVLDGTKFIAAAANYPENIDPWHILQTGGKEIKSAIPMGCVLTLPATGSESNAGAVISRKTTGDKQAFHSAHVQPVFAVLDPVYTYTLPPRQVANGVVDAFVHTVEQYVTKPVDAKIQDRFAEGILLTLIEDGPKALKEPENYDVRANVMWAATQALNGLIGAGVPQDWATHMLGHELTAMHGLDHAQTLAIVLPALWNEKRDTKRAKLLQYAERVWNITEGSDDERIDAAIAATRNFFEQLGVPTHLSDYGLDGSSIPALLKKLEEHGMTQLGENHDITLDVSRRIYEAAR
B2: Ll-KdcA V461I: L. lactis KdcA mutant V461I, SEQ ID No. 198 (protein, listed as Lactococcus lactis)
chain: MYTVGDYLLDRLHELGIEEIFGVPGDYNLQFLDQIISREDMKWIGNANELNASYMADGYARTKKAAAFLTTFGVGELSAINGLAGSYAENLPVVEIVGSPTSKVQNDGKFVHHTLADGDFKHFMKMHEPVTAARTLLTAENATYEIDRVLSQLLKERKPVYINLPVDVAAAKAEKPALSLEKESSTTNTTEQVILSKIEESLKNAQKPVVIAGHEVISFGLEKTVTQFVSETKLPITTLNFGKSAVDESLPSFLGIYNGKLSEISLKNFVESADFILMLGVKLTDSSTGAFTHHLDENKMISLNIDEGIIFNKVVEDFDFRAVVSSLSELKGIEYEGQYIDKQYEEFIPSSAPLSQDRLWQAVESLTQSNETIVAEQGTSFFGASTIFLKSNSRFIGQPLWGSIGYTFPAALGSQIADKESRHLLFIGDGSLQLTVQELGLSIREKLNPICFIINNDGYTIEREIHGPTQSYNDIPMWNYSKLPETFGATEDRVVSKIVRTENEFVSVMKEAQADVNRMYWIELVLEKEDAPKLLKKMGKLFAEQNK

What was measured:
Assay type in all cases: biochemical
[1] = PDO dehydrogenase activity (PDO-dependent reduction of NADP); conditions: 100 mM 1,3-propanediol, 10 mM NADP, 37° C., pH 8
Experimental: PDO dehydrogenase activity was assayed by following the PDO-dependent reduction of NADP. 1,3-propanediol+NADP^+→3-hydroxypropional+NADPH Reaction scheme:
Reactions were started by adding 100 mM 1,3-propanediol (PDO, Sigma).

[2] = OHB decarboxylase activity (coupled to YqhD, NADPH)
Experimental: (§1) OHB decarboxylase activity was assayed by coupling the decarboxylase activity to the NADPH-dependent reduction of the released 3-hydroxypropanal by purified aldehyde reductase, YqhD, from E. coli. The decarboxylation of pyruvate was coupled to the NADH-dependent reduction of acetaldehyde catalysed by yeast alcohol dehydrogenase. Branched-chain alpha-ketoacid decarboxylase activity was measured on 4-methyl-2-oxovaleric acid by coupling to the NADH-dependent reduction of 3-methylbutanal catalysed by horse liver alcohol dehydrogenase. […] Reactions were started by adding 20 mM 2-oxo-4-hydroxybutyrate (OHB), 10 mM 4-methyl-2-oxovaleric acid (MOV), or 5 mM pyruvate.

[3] = Branched-chain alpha-ketoacid decarboxylase activity (coupled to horse liver alcohol dehydrogenase); conditions: activity measured at 10 mM MOV (KdcA mutants); Table 10
Experimental: as §1

Row | Molecule | PDO dehydrogenase activity [1] | Max. specific activity, OHB ([2]; activity measured at 20 mM OHB, Table 10) | Effect of mutation on activity and/or specificity for OHB (in words) ([2]; versus wild-type enzyme) | Max. specific activity, Natural substrate [3]
1 | B1 | 0.15 µmol/min/mg |  |  | 
2 | B2 |  | 0.24 µmol/mg/min | increased activity and/or specificity for OHB | 2.76 µmol/mg/min
